Reference: PMC3737725 (Development (Cambridge, England), 2013)

Target: T1, murine MBP::KSR1 (mouse, UniProt Q61097 1-873)
T1 sequence (looked up): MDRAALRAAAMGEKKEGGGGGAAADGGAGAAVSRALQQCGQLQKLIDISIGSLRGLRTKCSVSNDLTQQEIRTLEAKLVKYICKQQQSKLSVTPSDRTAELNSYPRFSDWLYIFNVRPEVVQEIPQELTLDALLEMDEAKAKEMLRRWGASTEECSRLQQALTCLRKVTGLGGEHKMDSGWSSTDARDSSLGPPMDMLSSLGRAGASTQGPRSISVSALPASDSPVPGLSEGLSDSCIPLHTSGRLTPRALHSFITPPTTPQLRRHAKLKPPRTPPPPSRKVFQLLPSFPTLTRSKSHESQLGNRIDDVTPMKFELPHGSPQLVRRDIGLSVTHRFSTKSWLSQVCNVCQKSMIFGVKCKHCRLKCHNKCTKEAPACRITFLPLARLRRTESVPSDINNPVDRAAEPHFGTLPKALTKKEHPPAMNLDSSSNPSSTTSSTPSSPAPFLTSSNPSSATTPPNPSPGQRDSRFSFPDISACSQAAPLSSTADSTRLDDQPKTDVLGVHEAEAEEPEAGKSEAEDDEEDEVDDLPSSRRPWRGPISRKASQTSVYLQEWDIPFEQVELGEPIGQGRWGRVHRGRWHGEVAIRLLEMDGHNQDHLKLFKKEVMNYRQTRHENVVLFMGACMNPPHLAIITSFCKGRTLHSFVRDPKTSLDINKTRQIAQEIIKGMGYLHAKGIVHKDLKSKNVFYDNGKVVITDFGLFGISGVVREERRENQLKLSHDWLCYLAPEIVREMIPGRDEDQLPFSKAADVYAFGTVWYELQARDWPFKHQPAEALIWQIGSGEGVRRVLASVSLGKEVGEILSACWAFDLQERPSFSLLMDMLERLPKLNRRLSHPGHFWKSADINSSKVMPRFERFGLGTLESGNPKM
Test: pull-down

B1: GST::NDK-1::His6 (natural protein, C. elegans, UniProt Q93576 1-153, looked up)
chain: MSNTERTFIAIKPDGVHRGLVGKIIARFEERGYKLVALKQMTASKAHLEVHYQDLKDKPFFPSLIEYMSSGPVVAMVWQGLDVVKQGRSMLGATNPLASAPGTIRGDFCIQTGRNICHGSDAVDSANREIAHWFKQEEINDYASPFINSWVYE
B1: binds.
